Data as given in patent publication US20260176336A1 (MESTAG THERAPEUTICS, published 2026).

B1: Clone 2.1 (antibody, V domains shown)
VH: EVQLVESGGGLVKPGGSLRLSCAASGFTFSSYCMNWVRQAPGKGLEWVSSISTGNTYIYYSDSVKGRFTISRDNAKNSLYLQMNSLRAEDTAVYYCARARYNWNYDAFDIWGQGTMVTVSS
VL: DIQMTQSPSSLSASIGDRVTITCQASQDISNFLSWYQQKPGKAPNLLIFDASNLETGVPSRFSESGSGTDFSFTITSLQPEDIATYYCQQYYNVPLTFGGGTKVEIK
notes: anti-LTBR mAb (bivalent)
B2: Clone 2.2 (antibody, V domains shown)
VH: EVQLVESGGGLVKPGGSLRLSCAASRFTFSSYSMNWVRQAPGKGLEWVSSISPSSSYIYYADSVKGRFTISRDNAKNSLYLQMNSLRAEDTAVYYCARDHYNWNFDALDIWGQGTMVTVSS
VL: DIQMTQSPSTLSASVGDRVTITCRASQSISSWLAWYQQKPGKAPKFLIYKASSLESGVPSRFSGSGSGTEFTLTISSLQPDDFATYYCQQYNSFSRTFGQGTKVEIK
notes: anti-LTBR mAb (bivalent)
B3: Clone 2.3 (antibody, V domains shown)
VH: EVQLVESGGGLVQPGGSLRLSCAASGFTFSSYAMSWVRQAPGKGLEWVSGISGSGGRTNYADSVKGRFTISRDNSKNTLYLQMNSLRAEDTAVYYCAKSDNWHYLDAFDIWGQGTMVTVSS
VL: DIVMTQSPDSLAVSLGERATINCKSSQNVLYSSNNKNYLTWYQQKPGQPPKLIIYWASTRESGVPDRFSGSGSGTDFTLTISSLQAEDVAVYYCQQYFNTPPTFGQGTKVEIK
notes: anti-LTBR mAb (bivalent)
B4: Clone 2.5 (antibody, V domains shown)
VH: EVQLVESGGGLVQPGRSLRLSCAASGFTFDDYDIHWVRQAPGKGLEWVSGINWNSITIGYADSVKGRFTISRDNAKNSLYLQMNSLRAEDTALYYCAKDRGSGWRIFDYWGQGTLVTVSS
VL: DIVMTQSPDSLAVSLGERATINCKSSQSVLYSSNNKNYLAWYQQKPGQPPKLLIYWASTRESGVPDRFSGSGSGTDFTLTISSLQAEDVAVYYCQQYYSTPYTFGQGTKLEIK
notes: anti-LTBR mAb (bivalent)
B5: Clone 2.6 (antibody, V domains shown)
VH: QVQLVQSGTEMKKPGASVKVSCKASGYTFSSYDISWVRQAPGQGLEWMGWFSAYNGNSNYAQKFQGRVTMTTDTSTNTAYMELRSLRSDDTAVYYCAREGYYGNSGFFDYWGQGTLVTVSS
VL: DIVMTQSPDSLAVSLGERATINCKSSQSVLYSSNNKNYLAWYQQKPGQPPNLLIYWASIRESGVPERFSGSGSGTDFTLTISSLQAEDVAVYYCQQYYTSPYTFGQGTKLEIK
notes: anti-LTBR mAb (bivalent)
B6: Clone 2.7 (antibody, V domains shown)
VH: EVQLVESGGGLVQPGGSLRLSCAASGFIFDDYDMHWVRQAPGKGLEWVSGINWNSNRVDYADSVKGRFTISRDNARNSLYLQMNSLRPEDTAFYYCVKDKTSSWYVFDSWGQGTPVTVSS
VL: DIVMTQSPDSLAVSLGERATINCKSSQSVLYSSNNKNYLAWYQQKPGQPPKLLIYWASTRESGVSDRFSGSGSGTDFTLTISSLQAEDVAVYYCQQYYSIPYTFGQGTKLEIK
notes: anti-LTBR mAb (bivalent)
B7: Clone 2.4 (antibody, V domains shown)
VH: QVQLVESGGGVVQPGRSLRLSCAASGFTFSSYGIHWVRQAPGKGLEWVAVIWYDGSNKYYADSVKGRFTISRDNSKNTLYLQMNSLRAEDTAVYYCARDGGTGNYYYMDVWGKGTTVTVSS
VL: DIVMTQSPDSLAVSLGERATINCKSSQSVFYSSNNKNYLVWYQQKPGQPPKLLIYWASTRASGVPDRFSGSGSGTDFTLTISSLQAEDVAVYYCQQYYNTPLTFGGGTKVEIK
notes: anti-LTBR mAb (bivalent)
B8: Clone 4.10 (bispecific antibody, human IgG1, kappa, L234A L235A)
heavy 1: not shown
heavy 2: EVQLVESGGGLVKPGGSLRLSCVASGFTFSLAWMNWVRQAPGKGLEWVGHIKSRADGGSTDYAAPVKGRFTISRDDSKNTLYLHMNSLKTEDTAVYFCSRFYWNYVLDYWGQGTLVTVSSASTKGPSVFPLAPSSKSTSGGTAALGCLVKDYFPEPVTVSWNSGALTSGVHTFPAVLQSSGLYSLSSVVTVPSSSLGTQTYICNVNHKPSNTKVDKKVEPKSCDKTHTCPPCPAPEAAGGPSVFLFPPKPKDTLMISRTPEVTCVVVDVSHEDPEVKFNWYVDGVEVHNAKTKPREEQYNSTYRVVSVLTVLHQDWLNGKEYKCKVSNKALPAPIEKTISKAKGQPREPQVCTLPPSRDELTKNQVSLSCAVKGFYPSDIAVEWESNGQPENNYKTTPPVLDSDGSFFLVSKLTVDKSRWQQGNVFSCSVMHEALHNHYTQKSLSLSPGK
light: DIQMTQSPSSLSASVGDRVTITCRASQSINSYFNWYQQKPGKAPKLLIYAASGLQSGVPSRFSGSGSGTDFTLTISSLQPEDFATYYCQQSYSPPYTFGQGTNLEIKRTVAAPSVFIFPPSDEQLKSGTASVVCLLNNFYPREAKVQWKVDNALQSGNSQESVTEQDSKDSTYSLSSTLTLSKADYEKHKVYACEVTHQGLSSPVTKSFNRGEC
B9: Clone 2.8 (antibody, V domains shown)
VH: QVQLQESGPGLVKPSGTLSLTCAVSGGSISSSNWWSWVRQPPGKGLEWIGDIYHDGTTYYNPSLKSRVTVSVDKSKNQFSLKLSSVTAADTAVYYCARSPSGTTDYFDYWGQGTLVTVSS
VL: DIQMTQSPSSLSASVGDRVNITCRASQSISSYLNWYQQKPGKAPKLLIYAPSSLQSGVPSRFSGGGSGTDFTLTISSLQPEDFATYFCQQSYSTPPTFGPGTKVDIK
notes: anti-LTBR mAb (bivalent)
B10: Clone 4.15 (antibody, V domains shown)
VH: QVQLKESGPGLVQPSQTLSLTCTVSGFSLTTYSVHWVRQHSGKSLEWMGRMWTDGDTSYNSAFTSRLSISRDTSKSQVFLKMNSLQTEDTGTYYCARGYWYFDFWGPGTMVTVSS
VL: DVQMTQSPSYLAASPGESVSIRCKASKSISNNLAWYQEKPGKANKLLIHSGSTLQSGTPSRFSGSGSGTDFTLTIRSLEFEDFAVYYCQQYNEYPYTFGAGTKLELK

target: T1, human LTBR endogenously expressed on cells (HepG2, A549, A375, HCC1187, RPMI-7951, primary human breast CAFs) (human, UniProt P36941 31-435); assay: flow cytometry, A375 cells
T1 construct: also called lymphotoxin beta receptor; TNFRSF3
T1 sequence (P36941 31-435): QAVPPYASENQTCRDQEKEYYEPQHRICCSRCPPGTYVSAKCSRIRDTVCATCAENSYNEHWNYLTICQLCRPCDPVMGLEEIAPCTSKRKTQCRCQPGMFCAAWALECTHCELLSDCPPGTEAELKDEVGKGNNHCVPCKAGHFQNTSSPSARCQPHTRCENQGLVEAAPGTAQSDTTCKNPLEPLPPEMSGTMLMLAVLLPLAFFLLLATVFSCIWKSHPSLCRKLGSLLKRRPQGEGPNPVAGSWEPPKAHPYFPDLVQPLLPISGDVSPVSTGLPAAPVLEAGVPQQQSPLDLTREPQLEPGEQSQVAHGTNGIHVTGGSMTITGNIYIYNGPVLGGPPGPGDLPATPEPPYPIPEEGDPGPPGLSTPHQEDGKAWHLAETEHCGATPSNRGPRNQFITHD
Protocol: For binding to LTBR-positive cells, the A375 tumor cell line was used. At the same time, binding to LTBR-negative HEK293 cells was tested to confirm specificity. In short, the cells were resuspended in the FACS binding buffer, and live/dead efluro450 viability dye was added at a 1:1000 dilution to the cell suspension, followed by incubation at room temperature in the dark for 30 minutes. The cells were then diluted to 2 e5/ml, and 100 ul was added to wells of a 96-well U-bottom plate as required. […] The cells were pelleted by centrifugation, and the supernatant was discarded, followed by the addition of a series of dilutions of anti-LTBR antibodies and incubation for 45 minutes at 4 C in the dark. Cells were washed two times with PBS with 3% (w/v) BSA before adding 60 ul of fluorescently labelled secondary antibody (goat anti-human IgG) diluted to 1:200 in PBS. Incubation continued at 4 C for at least 30 minutes, followed by two washes in PBS pH 7.4. Cells were either fixed with 2% PFA (30 minutes at 4 C) followed by washout and storage in 100 ul of PBS or immediately analysed on a Flow Cytometer. The data were analysed using FloJo V10 and GraphPad Prism. No binding to the HEK cell line was detected for any tested clones, confirming the specific interaction between anti-LTBR antibodies and LTBR receptor. The results are summarised in.

Point of comparison: B2, EC50 0.72 nM. Against it:
- B1 — within 1.5-fold, 1 nM
- B3 — within 1.5-fold, 0.66 nM
- B4 — 7.5-fold higher, 5.4 nM
- B5 — 4.9-fold higher, 3.5 nM
- B6 — 13-fold higher, 9.5 nM

target: T1, human LTBR endogenously expressed on …; assay: cell-based or functional assay

Point of comparison: B2, “HepG2 reporter assay EC50 (with cross-linking antibody)” value 0.19 nM. Against it:
- B1 — within 1.5-fold, 0.16 nM
- B3 — 4.4-fold lower, 0.043 nM
- B7 — 2.1-fold lower, 0.09 nM
- B4 — within 1.5-fold, 0.14 nM
- B5 — 1.9-fold lower, 0.1 nM
- B6 — within 1.5-fold, 0.18 nM

Point of comparison: B4, “HepG2 reporter assay EC50 (w/o cross-linking antibody)” value 0.24 nM. Against it:
- B2 — 71-fold higher, 17 nM
- B3 — 1.8-fold lower, 0.13 nM
- B5 — 3.3-fold lower, 0.073 nM
- B6 — within 1.5-fold, 0.17 nM

target: T1, human LTBR endogenously expressed on …; assay: cell-based or functional assay; remark: another data set of the same source

In the case of B8, the “CCL19 upregulation, HCC1187:CAF Co-culture EC50” value is reported as 0.41 nM.

target: Human LTBR (Acro), recombinant protein (human, UniProt P36941 31-227, limits assumed); assay: SPR (Carterra LSA), antibody captured by anti-human Fc, LTBR as analyte
Sequence (P36941 31-227 limits assumed): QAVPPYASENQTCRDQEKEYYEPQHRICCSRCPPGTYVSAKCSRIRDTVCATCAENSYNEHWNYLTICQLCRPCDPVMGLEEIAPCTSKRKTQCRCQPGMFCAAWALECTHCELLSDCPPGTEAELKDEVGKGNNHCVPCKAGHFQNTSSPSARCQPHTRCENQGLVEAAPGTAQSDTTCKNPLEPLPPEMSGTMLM
Protocol: (§1) The binding of anti-LTBR antibodies to human and cynomolgus LTBR was investigated by Surface Plasmon Resonance (SPR) on Carterra LSA. An EC30M chip was used to capture the test antibodies. Activation with EDC and sNHS occurred in MES pH 5.5 to prepare the chip for amine coupling. Goat anti-human IgG Fc antibody was then captured to the chip via incubation for 10 minutes. Excess conjugation sites were quenched with 1M Ethanolamine pH 8. To measure monovalent binding kinetics, antibodies were printed/spotted onto the chip and allowed to bind to the goat antibody, followed by subsequent washing. After the preparation, the printed chip was exposed to repeated rounds of association and dissociation with increasing analyte concentrations. In this work, recombinant proteins (Human LTBR (Acro) or cyno LTBR His (R&D)) were serially diluted across a range starting at 1500 nM with 3-fold dilutions and 10 points. The curves were fitted to global fit in a 1:1 binding model to obtain KD values. The binding affinity to both species is reported.

Point of comparison: B1, Kd 0.25 nM. Against it:
- B2 — 2.2-fold higher, 0.56 nM
- B3 — 2.3-fold higher, 0.58 nM
- B7 — 140-fold higher, 36 nM
- B4 — 8.4-fold higher, 2.1 nM
- B5 — within 1.5-fold, 0.18 nM
- B6 — 17-fold higher, 4.3 nM
- B9 — within 1.5-fold, 0.28 nM

target: T2, cyno LTBR His (R&D), recombinant protein (cynomolgus (Macaca fascicularis), UniProt P36941 31-227 (human entry), limits assumed); assay: as above
T2 construct: bought protein used as analyte on Carterra LSA
T2 sequence (P36941 other isoform, or with tags, fused parts or gaps limits assumed): as the sequence (P36941 31-227 limits assumed) above, with A2V, A7G, Q24R, I45S, N163D, K181R, L184S, P186S counted along it
Protocol: as §1

Point of comparison: B2, Kd 0.71 nM. Against it:
- B1 — 2.7-fold lower, 0.26 nM
- B3 — 1.8-fold lower, 0.39 nM
- B7 — 75-fold higher, 53 nM
- B4 — 2.3-fold higher, 1.6 nM
- B5 — 30-fold lower, 0.024 nM
- B6 — 1.8-fold higher, 1.3 nM
- B9 — 3.7-fold higher, 2.6 nM

target: T1, human LTBR endogenously expressed on …; assay: cell-based or functional assay; remark: another data set of the same source

With B8 the “HepG2 Reporter assay, HepG2:FAP-CHO-K1 Co-culture EC50” value was 0.036 nM.

target: mouse LTBR on cells (4T1 tumor cell line; primary mouse lung fibroblasts) (mouse, UniProt P50284 31-415); assay: cell-based or functional assay
Sequence (P50284 31-415): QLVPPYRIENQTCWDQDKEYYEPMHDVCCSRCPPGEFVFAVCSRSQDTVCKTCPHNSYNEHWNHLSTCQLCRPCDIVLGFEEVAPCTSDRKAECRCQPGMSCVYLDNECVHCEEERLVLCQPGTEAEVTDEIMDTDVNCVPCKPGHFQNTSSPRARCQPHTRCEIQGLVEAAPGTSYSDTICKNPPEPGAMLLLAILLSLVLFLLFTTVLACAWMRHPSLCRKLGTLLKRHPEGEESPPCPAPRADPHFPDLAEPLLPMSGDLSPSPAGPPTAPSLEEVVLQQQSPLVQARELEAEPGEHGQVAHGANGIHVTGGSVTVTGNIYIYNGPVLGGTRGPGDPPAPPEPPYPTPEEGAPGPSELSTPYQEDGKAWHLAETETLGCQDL

In the case of B10, the “4T1 monoculture CCL5 read-out EC50” value is reported as 0.84 nM.

In the case of B10, the “4T1 monoculture CCL5 read-out EC50, 4.15 + cross-linking antibody” value is reported as 0.036 nM.
